Response data for four variants are collected here from publication PMC5345052, “Auto-phosphorylation Represses Protein Kinase R Activity” (Scientific Reports, 2017).

B1: truncated PKR kinase domain with N-terminal split Venus V2 tag [human] / full-length PKR with N-terminal split Venus V1 tag [human] (parent)
chain 1: MAGDLSAGFFMEELNTYRQKQGVVLKYQELPNSGPPHDRRFTFQVIIDGREFPEGEGRSKKEAKNAAAKLAVEILNKEKKAVSPLLLTTTNSSEGLSMGNYIGLINRIAQKKRLTVNYEQCASGVHGPEGFHYKCKMGQKEYSIGTGSTKQEAKQLAAKLAYLQILSEETSVKSDYLSSGSFATTCESQSNSLVTSTLASESSSEGDFSADTSEINSNSDSLNSSSLLMNGLRNNQRKAKRSLAPRFDLPDMKETKYTVDKRFGMDFKEIELIGSGGFGQVFKAKHRIDGKTYVIKRVKYNNEKAEREVKALAKLDHVNIVHYNGCWDGFDYDPETSDDSLESSDYDPENSKNSSRSKTKCLFIQMEFCDKGTLEQWIEKRRGEKLDKVLALELFEQITKGVDYIHSKKLIHRDLKPSNIFLVDTKQVKIGDFGLVTSLKNDGKRTRSKGTLRYMSPEQISSQDYGKEVDLYALGLILAELLHVCDTAFETSKFFTDLRDGIISDIFDKKEKTLLQKLLSKKPEDRPNTSEILRTLTVWKKSPEKNERHTC
chain 2: TVDKRFGMDFKEIELIGSGGFGQVFKAKHRIDGKTYVIKRVKYNNEKAEREVKALAKLDHVNIVHYNGCWDGFDYDPETSDDSLESSDYDPENSKNSSRSKTKCLFIQMEFCDKGTLEQWIEKRRGEKLDKVLALELFEQITKGVDYIHSKKLIHRDLKPSNIFLVDTKQVKIGDFGLVTSLKNDGKRTRSKGTLRYMSPEQISSQDYGKEVDLYALGLILAELLHVCDTAFETSKFFTDLRDGIISDIFDKKEKTLLQKLLSKKPEDRPNTSEILRTLTVWKKSPEKNERHTC

The variants in the test derive from B1. Description: split Venus fluorescence complementation in HEK293 cells.
Setting [1] is: 20 ng/well of each construct, 5 μM of 2AP, n = 3, read off a plot.
The mark [2] stands for this setting: 20 ng/well of each construct, n = 7, read off a plot.

Regarding chain 2 K39R, the response (20 ng/well of full-length PKR and 30 ng/well of the truncated KD, n = 7, read off a plot) was determined as 4.2.

For the variant chain 1 S33A H37R T42A, the response was 4.7 under setting [1] and 3 under setting [2].

Turning to chain 1 H37R, the response by setting is: under setting [1], 2.7; under setting [2], 2.5. On to chain 1 S33E H37R T42E, for which the response stood at 2.9 under setting [1] and 2.5 under setting [2].
